Source: article PMC5059453, “Structure of ubiquitylated-Rpn10 provides insight into its autoregulation mechanism” (Nature Communications, 2016)

B1: free mono-ubiquitin (wild type) (natural protein)
chain: not shown
notes: ubiquitin (Ub), the mature 76-residue protein; also called Ub wt; source: purified, size exclusion chromatography before each experiment
B2: GST-Rpn10 UIM (domain or fragment, S. cerevisiae, UniProt P38886 223-242, looked up)
chain: SMDPELAMALRLSMEEEQQR
notes: also called its UIM alone; source: expressed and purified as GST-fusion protein, size exclusion chromatography before each experiment

Assays:
Assay in all cases: SPR; α-GST antibody immobilized on a CM5 chip captures GST-Rpn10 derivatives (ligands); free mono-Ub variants as analytes; 10 mM HEPES pH 7.0, 150 mM NaCl, 0.005% polysorbate-20, 25 °C; triplicate; single-site-binding model
Settings in all cases: both partners purified
[1] = target: T1, GST-Rpn10 (full-length Rpn10) (S. cerevisiae, UniProt P38886 1-268)
T1 construct: Rpn10, proteasomal ubiquitin receptor, S. cerevisiae; open reading frame encodes residues 1-268; Plasmid pGST-Rpn10; also called Rpn10 wt; wild-type full-length Rpn10; source: expressed and purified as GST-fusion protein, size exclusion chromatography before each experiment
T1 sequence (looked up): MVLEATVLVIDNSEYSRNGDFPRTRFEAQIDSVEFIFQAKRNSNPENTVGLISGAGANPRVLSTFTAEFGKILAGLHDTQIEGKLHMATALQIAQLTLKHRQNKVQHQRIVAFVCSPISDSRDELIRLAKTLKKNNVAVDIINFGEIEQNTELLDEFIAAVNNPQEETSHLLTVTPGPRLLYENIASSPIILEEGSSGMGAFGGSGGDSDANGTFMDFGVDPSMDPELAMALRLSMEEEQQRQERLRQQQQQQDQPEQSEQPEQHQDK

[2] = target: T2, GST-Rpn10 vWA domain (residues 1-189) (S. cerevisiae, UniProt P38886 1-189)
T2 construct: Rpn10, S. cerevisiae, N-terminal vWA (Von Willebrand factor type A) domain, residues 1-189 (made from pGST-Rpn10 by deleting residues 190-268); also called wild-type vWA; source: expressed and purified as GST-fusion protein, size exclusion chromatography before each experiment
T2 sequence (looked up): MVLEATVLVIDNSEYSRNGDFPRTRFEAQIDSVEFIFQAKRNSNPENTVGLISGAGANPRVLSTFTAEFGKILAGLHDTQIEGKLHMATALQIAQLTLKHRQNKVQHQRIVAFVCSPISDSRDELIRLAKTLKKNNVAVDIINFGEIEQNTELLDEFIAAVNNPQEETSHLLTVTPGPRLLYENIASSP

[3] = target: B1

Binder B1 has a Kd [1] of ~270 µM and a Kd [2] of ~330 µM.

B2 showed a Kd [3] of ~180 µM.
